Measured values published in publication PMC6814714, “Binding partner- and force-promoted changes in αE-catenin conformation probed by native cysteine labeling” (Scientific Reports, 2019).

B1: αE-catenin R551A (full-length) (natural protein, murine, UniProt P26231 1-906, looked up)
chain: MTAVHAGNINFKWDPKSLEIRTLAVERLLEPLVTQVTTLVNTNSKGPSNKKRGRSKKAHVLAASVEQATENFLEKGDKIAKESQFLKEELVVAVEDVRKQGDLMKSAAGEFADDPCSSVKRGNMVRAARALLSAVTRLLILADMADVYKLLVQLKVVEDGILKLRNAGNEQDLGIQYKALKPEVDKLNIMAAKRQQELKDVGNRDQMAAARGILQKNVPILYTASQACLQHPDVAAYKANRDLIYKQLQQAVTGISNAAQATASDDAAQHQGGSGGELAYALNNFDKQIIVDPLSFSEERFRPSLEERLESIISGAALMADSSCTRDDRRERIVAECNAVRQALQDLLSEYMGNAGRKERSDALNSAIDKMTKKTRDLRRQLRKAVMDHVSDSFLETNVPLLVLIEAAKNGNEKEVKEYAQVFREHANKLIEVANLACSISNNEEGVKLVRMSASQLEALCPQVINAALALAAKPQSKLAQENMDLFKEQWEKQVRVLTDAVDDITSIDDFLAVSENHILEDVNKCVIALQEKDVDGLDRTAGAIRGRAAAVIHVVTSEMDNYEPGVYTEKVLEATKLLSNTVMPRFTEQVEAAVEALSSDPAQPMDENEFIDASRLVYDGIRDIRKAVLMIRTPEELDDSDFETEDFDVRSRTSVQTEDDQLIAGQSARAIMAQLPQEQKAKIAEQVASFQEEKSKLDAEVSKWDDSGNDIIVLAKQMCMIMMEMTDFTRGKGPLKNTSDVISAAKKIAEAGSRMDKLGRTIADHCPDSACKQDLLAYLQRIALYCHQLNICSKVKAEVQNLGGELVVSGVDSAMSLIQAAKNLMNAVVQTVKASYVASTKYQKSQGMASLNLPAVSWKMKAPEKKPLVKREKQDETQTKIKRASQKKHVNPVQALSEFKAMDSI
notes: αE-catenin, murine, full length, with the point mutation R551A; Used in ITC (monomer in the cell); also called R551A αE-catenin; R551A mutant; source: E. coli BL21, purified (glutathione-agarose, TEV cleavage, Mono Q, SEC); monomer used; not shown: GST, N-terminal, cleaved
B2: β-catenin•Ecyto complex (complex)
chain 1: MATQADLMELDMAMEPDRKAAVSHWQQQSYLDSGIHSGATTTAPSLSGKGNPEEEDVDTSQVLYEWEQGFSQSFTQEQVADIDGQYAMTRAQRVRAAMFPETLDEGMQIPSTQFDAAHPTNVQRLAEPSQMLKHAVVNLINYQDDAELATRAIPELTKLLNDEDQVVVNKAAVMVHQLSKKEASRHAIMRSPQMVSAIVRTMQNTNDVETARCTAGTLHNLSHHREGLLAIFKSGGIPALVKMLGSPVDSVLFYAITTLHNLLLHQEGAKMAVRLAGGLQKMVALLNKTNVKFLAITTDCLQILAYGNQESKLIILASGGPQALVNIMRTYTYEKLLWTTSRVLKVLSVCSSNKPAIVEAGGMQALGLHLTDPSQRLVQNCLWTLRNLSDAATKQEGMEGLLGTLVQLLGSDDINVVTCAAGILSNLTCNNYKNKMMVCQVGGIEALVRTVLRAGDREDITEPAICALRHLTSRHQEAEMAQNAVRLHYGLPVVVKLLHPPSHWPLIKATVGLIRNLALCPANHAPLREQGAIPRLVQLLVRAHQDTQRRTSMGGTQQQFVEGVRMEEIVEGCTGALHILARDVHNRIVIRGLNTIPLFVQLLYSPIENIQRVAAGVLCELAQDKEAAEAIEAEGATAPLTELLHSRNEGVATYAAAVLFRMSEDKPQDYKKRLSVELTSSLFRTEPMAWNETADLGLDIGAQGEALGYRQDDPSYRSFHSGGYGQDALGMDPMMEHEMGGHHPGADYPVDGLPDLGHAQDLMDGLPPGDSNQLAWFDTDL
chain 2: not shown
notes: β-catenin, murine; cytoplasmic domain of E-cadherin (Ecyto); also called E-cadherin•β-catenin complex; cadherin•β-catenin

How the values were obtained:
[1] = biological target: B1; experiment: ITC; VP-ITC; αE-catenin monomer (or its complex) in the cell at 8–11 μM, binding partner injected at 70–155 μM; 20 mM HEPES pH 8.0, 150 mM NaCl, 1 mM DTT; 25 °C; conditions: both partners purified
[2] = biological target: T1, αE-catenin R551A•β-catenin•Ecyto complex (murine | , UniProt P26231 1-906; Q02248 1-781; P09803 734-884, R551A); experiment: as above; conditions: both partners purified
T1 construct: αE-catenin, murine, full length, with the point mutation R551A; β-catenin, murine; cytoplasmic domain of E-cadherin (Ecyto); Ternary complex placed in the ITC cell; also called ternary E-cadherin•β-catenin•αE-catenin R551A mutant complex; source: αE-catenin R551A: E. coli BL21, purified; not shown: GST, N-terminal, cleaved; copies: + +
T1 sequence (P09803 734-884, stated change not applied, one chain of several): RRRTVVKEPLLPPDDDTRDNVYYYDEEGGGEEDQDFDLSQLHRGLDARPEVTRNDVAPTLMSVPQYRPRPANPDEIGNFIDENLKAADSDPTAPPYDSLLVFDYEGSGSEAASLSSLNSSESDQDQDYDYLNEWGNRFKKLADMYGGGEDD

β-catenin•Ecyto complex = biological target: B2; experiment: as above; conditions: both partners purified
Sequence of β-catenin•Ecyto complex (P09803 734-884, one chain of several): as the sequence (P09803 734-884, stated change not applied, one chain of several) above

[3] = biological target: the molecule itself; experiment: crystal structure; αE-catenin 82–883 (C116S) dimer, 4.0 Å, crystals not dehydrated

| Kd [1] [µM] | dH [1] [kJ/mol] | Binder | other results |
| --- | --- | --- | --- |
| 0.0041 | 32.2 | vinculin D1 domain (residues 1–259) (domain or fragment, chicken, UniProt P12003 1-259, looked up, vinculin D1 domain, residues 1–259; the methods name chicken vinculin just before it) MPVFHTRTIESILEPVAQQISHLVIMHEEGEVDGKAIPDLTAPVSAVQAAVSNLVRVGKETVQTTEDQILKRDMPPAFIKVENACTKLVRAAQMLQADPYSVPARDYLIDGSRGILSGTSDLLLTFDEAEVRKIIRVCKGILEYLTVAEVVETMEDLVTYTKNLGPGMTKMAKMIDERQQELTHQEHRVMLVNSMNTVKELLPVLISAMKIFVTTKNTKSQGIEEALKNRNFTVEKMSAEINEIIRVLQLTSWDEDAWA | Kd [2]: 0.026 µM; dH [2]: 28 kJ/mol |
|  |  | B1 | Kd (β-catenin•Ecyto complex): 0.014 µM |
| 0.078 | -139 | β-catenin (natural protein, murine, UniProt Q02248 1-781, looked up, β-catenin, murine; also called murine β-catenin) MATQADLMELDMAMEPDRKAAVSHWQQQSYLDSGIHSGATTTAPSLSGKGNPEEEDVDTSQVLYEWEQGFSQSFTQEQVADIDGQYAMTRAQRVRAAMFPETLDEGMQIPSTQFDAAHPTNVQRLAEPSQMLKHAVVNLINYQDDAELATRAIPELTKLLNDEDQVVVNKAAVMVHQLSKKEASRHAIMRSPQMVSAIVRTMQNTNDVETARCTAGTLHNLSHHREGLLAIFKSGGIPALVKMLGSPVDSVLFYAITTLHNLLLHQEGAKMAVRLAGGLQKMVALLNKTNVKFLAITTDCLQILAYGNQESKLIILASGGPQALVNIMRTYTYEKLLWTTSRVLKVLSVCSSNKPAIVEAGGMQALGLHLTDPSQRLVQNCLWTLRNLSDAATKQEGMEGLLGTLVQLLGSDDINVVTCAAGILSNLTCNNYKNKMMVCQVGGIEALVRTVLRAGDREDITEPAICALRHLTSRHQEAEMAQNAVRLHYGLPVVVKLLHPPSHWPLIKATVGLIRNLALCPANHAPLREQGAIPRLVQLLVRAHQDTQRRTSMGGTQQQFVEGVRMEEIVEGCTGALHILARDVHNRIVIRGLNTIPLFVQLLYSPIENIQRVAAGVLCELAQDKEAAEAIEAEGATAPLTELLHSRNEGVATYAAAVLFRMSEDKPQDYKKRLSVELTSSLFRTEPMAWNETADLGLDIGAQGEALGYRQDDPSYRSFHSGGYGQDALGMDPMMEHEMGGHHPGADYPVDGLPDLGHAQDLMDGLPPGDSNQLAWFDTDL |  |
|  | -135 | B2 |  |
|  |  | αE-catenin 82–883 (C116S) (domain or fragment, murine, UniProt P26231 82-883, looked up, Crystallised as a homodimer; source: E. coli BL21, purified (glutathione-agarose, TEV cleavage, Mono Q, SEC); not shown: GST, N-terminal, cleaved) ESQFLKEELVVAVEDVRKQGDLMKSAAGEFADDPSSSVKRGNMVRAARALLSAVTRLLILADMADVYKLLVQLKVVEDGILKLRNAGNEQDLGIQYKALKPEVDKLNIMAAKRQQELKDVGNRDQMAAARGILQKNVPILYTASQACLQHPDVAAYKANRDLIYKQLQQAVTGISNAAQATASDDAAQHQGGSGGELAYALNNFDKQIIVDPLSFSEERFRPSLEERLESIISGAALMADSSCTRDDRRERIVAECNAVRQALQDLLSEYMGNAGRKERSDALNSAIDKMTKKTRDLRRQLRKAVMDHVSDSFLETNVPLLVLIEAAKNGNEKEVKEYAQVFREHANKLIEVANLACSISNNEEGVKLVRMSASQLEALCPQVINAALALAAKPQSKLAQENMDLFKEQWEKQVRVLTDAVDDITSIDDFLAVSENHILEDVNKCVIALQEKDVDGLDRTAGAIRGRAARVIHVVTSEMDNYEPGVYTEKVLEATKLLSNTVMPRFTEQVEAAVEALSSDPAQPMDENEFIDASRLVYDGIRDIRKAVLMIRTPEELDDSDFETEDFDVRSRTSVQTEDDQLIAGQSARAIMAQLPQEQKAKIAEQVASFQEEKSKLDAEVSKWDDSGNDIIVLAKQMCMIMMEMTDFTRGKGPLKNTSDVISAAKKIAEAGSRMDKLGRTIADHCPDSACKQDLLAYLQRIALYCHQLNICSKVKAEVQNLGGELVVSGVDSAMSLIQAAKNLMNAVVQTVKASYVASTKYQKSQGMASLNLPAVSWKMKAPEKKPLVKREKQDETQTKIK | binding result [3]: binds |
